Data taken from US20260167699A1 (Chugai, published 2026).

T1: FcγRIIa(R) extracellular domain, His-tagged (human, UniProt P12318 34-217)
T1 construct: extracellular domain; also called 2aR
T1 sequence: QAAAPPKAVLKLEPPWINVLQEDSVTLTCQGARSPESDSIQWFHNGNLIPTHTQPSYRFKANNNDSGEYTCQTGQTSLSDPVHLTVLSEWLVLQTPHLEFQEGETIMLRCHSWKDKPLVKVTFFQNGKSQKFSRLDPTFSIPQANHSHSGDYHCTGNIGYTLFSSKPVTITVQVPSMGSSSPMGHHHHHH

T2: FcγRIIb extracellular domain, His-tagged (human, UniProt P31994 43-217)
T2 construct: extracellular domain; also called 2b
T2 sequence: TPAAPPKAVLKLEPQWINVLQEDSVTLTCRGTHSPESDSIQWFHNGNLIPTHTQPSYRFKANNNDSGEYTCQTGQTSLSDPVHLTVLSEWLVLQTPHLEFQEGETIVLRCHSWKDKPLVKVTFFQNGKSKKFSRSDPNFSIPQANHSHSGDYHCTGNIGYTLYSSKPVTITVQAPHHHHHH

T3: FcγRIIa(H) extracellular domain, His-tagged (human, UniProt P12318 34-217)
T3 construct: extracellular domain; also called 2aH
T3 sequence: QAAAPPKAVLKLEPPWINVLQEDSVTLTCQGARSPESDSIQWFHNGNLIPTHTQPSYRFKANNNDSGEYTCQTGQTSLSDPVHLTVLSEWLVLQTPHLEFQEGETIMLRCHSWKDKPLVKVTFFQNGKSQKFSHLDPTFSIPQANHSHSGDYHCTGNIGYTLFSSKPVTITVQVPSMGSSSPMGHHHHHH


What was measured:
Experiment in all cases: SPR, vs GpH7-A5/GpH7-B3/GpL16-k0 =100
[1] = target: T1, FcγRIIa(R) extracellular domain, …
[2] = target: T2, FcγRIIb extracellular domain, His-tagged
[3] = target: T4, FcγRIIIa extracellular domain, His-tagged (human, UniProt P08637 17-208)
T4 construct: extracellular domain; also called 3a
T4 sequence (P08637 other isoform, or with tags, fused parts or gaps): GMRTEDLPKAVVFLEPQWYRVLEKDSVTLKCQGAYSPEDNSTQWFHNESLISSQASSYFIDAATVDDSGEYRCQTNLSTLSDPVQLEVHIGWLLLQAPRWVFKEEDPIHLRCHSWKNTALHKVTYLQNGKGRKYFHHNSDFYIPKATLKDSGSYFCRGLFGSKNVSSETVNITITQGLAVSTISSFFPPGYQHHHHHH

[4] = target: T3, FcγRIIa(H) extracellular domain, …
[5] = target: T5, FcγRIa extracellular domain, His-tagged (human, UniProt P12314 16-292)
T5 construct: extracellular domain; also called 1a
T5 sequence (P12314 other isoform, or with tags, fused parts or gaps): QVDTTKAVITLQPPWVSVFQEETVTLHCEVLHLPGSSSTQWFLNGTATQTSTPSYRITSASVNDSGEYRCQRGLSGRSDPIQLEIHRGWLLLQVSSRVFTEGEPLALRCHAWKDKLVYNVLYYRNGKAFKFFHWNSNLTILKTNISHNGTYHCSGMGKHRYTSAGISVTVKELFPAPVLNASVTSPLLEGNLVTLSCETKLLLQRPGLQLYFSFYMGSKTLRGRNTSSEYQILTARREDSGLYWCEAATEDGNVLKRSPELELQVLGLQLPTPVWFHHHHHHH

Binder | He/Con 2aR [1] | He/Con 2b [2] | He/Con 3a [3] | He/Con 2aH [4] | He/Con 1a [5]
GpH7-A5/GpH7-B3 variant P271_19Q/GpL16-k0 (antibody, human IgG1, kappa) heavy 1: not shown heavy 2: not shown light: DIVMTQSPLSLPVTPGEPASISCQASESLVHSNRNTYLHWYLQKPGQSPQLLIYKVSNRFSGVPDRFSGSGSGTDFTLKISRVEAEDVGVYYCSQNTHVPPTFGQGTKVEIERTVAAPSVFIFPPSDEQLKSGTASVVCLLNNFYPREAKVQWKVDNALQSGNSQESVTEQDSKDSTYSLSSTLTLSKADYEKHKVYACEVTHQGLSSPVTKSFNRGEC | 95.1 % of control | 99.3 % of control | 84.6 % of control | 90.7 % of control | 102 % of control
GpH7-A5/GpH7-B3 variant Q295_02A/GpL16-k0 (antibody, human IgG1, kappa) heavy 1: not shown heavy 2: not shown light: DIVMTQSPLSLPVTPGEPASISCQASESLVHSNRNTYLHWYLQKPGQSPQLLIYKVSNRFSGVPDRFSGSGSGTDFTLKISRVEAEDVGVYYCSQNTHVPPTFGQGTKVEIERTVAAPSVFIFPPSDEQLKSGTASVVCLLNNFYPREAKVQWKVDNALQSGNSQESVTEQDSKDSTYSLSSTLTLSKADYEKHKVYACEVTHQGLSSPVTKSFNRGEC | 91.5 % of control | 89.4 % of control | 111 % of control | 101 % of control | 103 % of control
GpH7-A5/GpH7-B3 variant Q295_04F/GpL16-k0 (antibody, human IgG1, kappa) heavy 1: not shown heavy 2: not shown light: DIVMTQSPLSLPVTPGEPASISCQASESLVHSNRNTYLHWYLQKPGQSPQLLIYKVSNRFSGVPDRFSGSGSGTDFTLKISRVEAEDVGVYYCSQNTHVPPTFGQGTKVEIERTVAAPSVFIFPPSDEQLKSGTASVVCLLNNFYPREAKVQWKVDNALQSGNSQESVTEQDSKDSTYSLSSTLTLSKADYEKHKVYACEVTHQGLSSPVTKSFNRGEC | 82.8 % of control | 72.6 % of control | 75.1 % of control | 87.4 % of control | 101 % of control
GpH7-A5/GpH7-B3 variant Q295_07I/GpL16-k0 (antibody, human IgG1, kappa) heavy 1: not shown heavy 2: not shown light: DIVMTQSPLSLPVTPGEPASISCQASESLVHSNRNTYLHWYLQKPGQSPQLLIYKVSNRFSGVPDRFSGSGSGTDFTLKISRVEAEDVGVYYCSQNTHVPPTFGQGTKVEIERTVAAPSVFIFPPSDEQLKSGTASVVCLLNNFYPREAKVQWKVDNALQSGNSQESVTEQDSKDSTYSLSSTLTLSKADYEKHKVYACEVTHQGLSSPVTKSFNRGEC | 97.3 % of control | 94.5 % of control | 101 % of control | 117 % of control | 101 % of control
GpH7-A5/GpH7-B3 variant Q295_06M/GpL16-k0 (antibody, human IgG1, kappa) heavy 1: not shown heavy 2: not shown light: DIVMTQSPLSLPVTPGEPASISCQASESLVHSNRNTYLHWYLQKPGQSPQLLIYKVSNRFSGVPDRFSGSGSGTDFTLKISRVEAEDVGVYYCSQNTHVPPTFGQGTKVEIERTVAAPSVFIFPPSDEQLKSGTASVVCLLNNFYPREAKVQWKVDNALQSGNSQESVTEQDSKDSTYSLSSTLTLSKADYEKHKVYACEVTHQGLSSPVTKSFNRGEC | 101 % of control | 101 % of control | 100 % of control | 111 % of control | 102 % of control
GpH7-A5/GpH7-B3 variant P271_20W/GpL16-k0 (antibody, human IgG1, kappa) heavy 1: not shown heavy 2: not shown light: DIVMTQSPLSLPVTPGEPASISCQASESLVHSNRNTYLHWYLQKPGQSPQLLIYKVSNRFSGVPDRFSGSGSGTDFTLKISRVEAEDVGVYYCSQNTHVPPTFGQGTKVEIERTVAAPSVFIFPPSDEQLKSGTASVVCLLNNFYPREAKVQWKVDNALQSGNSQESVTEQDSKDSTYSLSSTLTLSKADYEKHKVYACEVTHQGLSSPVTKSFNRGEC | 76.6 % of control | 65.1 % of control | 77.8 % of control | 88.7 % of control | 101 % of control
GpH7-A5/GpH7-B3 variant Q295_11K/GpL16-k0 (antibody, human IgG1, kappa) heavy 1: not shown heavy 2: not shown light: DIVMTQSPLSLPVTPGEPASISCQASESLVHSNRNTYLHWYLQKPGQSPQLLIYKVSNRFSGVPDRFSGSGSGTDFTLKISRVEAEDVGVYYCSQNTHVPPTFGQGTKVEIERTVAAPSVFIFPPSDEQLKSGTASVVCLLNNFYPREAKVQWKVDNALQSGNSQESVTEQDSKDSTYSLSSTLTLSKADYEKHKVYACEVTHQGLSSPVTKSFNRGEC | 88.1 % of control | 79 % of control | 81.8 % of control | 102 % of control | 99.7 % of control
GpH7-A5/GpH7-B3 variant Q295_12R/GpL16-k0 (antibody, human IgG1, kappa) heavy 1: not shown heavy 2: not shown light: DIVMTQSPLSLPVTPGEPASISCQASESLVHSNRNTYLHWYLQKPGQSPQLLIYKVSNRFSGVPDRFSGSGSGTDFTLKISRVEAEDVGVYYCSQNTHVPPTFGQGTKVEIERTVAAPSVFIFPPSDEQLKSGTASVVCLLNNFYPREAKVQWKVDNALQSGNSQESVTEQDSKDSTYSLSSTLTLSKADYEKHKVYACEVTHQGLSSPVTKSFNRGEC | 82.2 % of control | 73.1 % of control | 73.2 % of control | 96.4 % of control | 98.8 % of control
GpH7-A5/GpH7-B3 variant Q295_05P/GpL16-k0 (antibody, human IgG1, kappa) heavy 1: not shown heavy 2: not shown light: DIVMTQSPLSLPVTPGEPASISCQASESLVHSNRNTYLHWYLQKPGQSPQLLIYKVSNRFSGVPDRFSGSGSGTDFTLKISRVEAEDVGVYYCSQNTHVPPTFGQGTKVEIERTVAAPSVFIFPPSDEQLKSGTASVVCLLNNFYPREAKVQWKVDNALQSGNSQESVTEQDSKDSTYSLSSTLTLSKADYEKHKVYACEVTHQGLSSPVTKSFNRGEC | 86.6 % of control | 75.7 % of control | 74.4 % of control | 118 % of control | 102 % of control
GpH7-A5/GpH7-B3 variant Q295_09D/GpL16-k0 (antibody, human IgG1, kappa) heavy 1: not shown heavy 2: not shown light: DIVMTQSPLSLPVTPGEPASISCQASESLVHSNRNTYLHWYLQKPGQSPQLLIYKVSNRFSGVPDRFSGSGSGTDFTLKISRVEAEDVGVYYCSQNTHVPPTFGQGTKVEIERTVAAPSVFIFPPSDEQLKSGTASVVCLLNNFYPREAKVQWKVDNALQSGNSQESVTEQDSKDSTYSLSSTLTLSKADYEKHKVYACEVTHQGLSSPVTKSFNRGEC | 68.7 % of control | 68.1 % of control | 85.6 % of control | 62.6 % of control | 98.5 % of control
GpH7-A5/GpH7-B3 variant Q295_08L/GpL16-k0 (antibody, human IgG1, kappa) heavy 1: not shown heavy 2: not shown light: DIVMTQSPLSLPVTPGEPASISCQASESLVHSNRNTYLHWYLQKPGQSPQLLIYKVSNRFSGVPDRFSGSGSGTDFTLKISRVEAEDVGVYYCSQNTHVPPTFGQGTKVEIERTVAAPSVFIFPPSDEQLKSGTASVVCLLNNFYPREAKVQWKVDNALQSGNSQESVTEQDSKDSTYSLSSTLTLSKADYEKHKVYACEVTHQGLSSPVTKSFNRGEC | 118 % of control | 134 % of control | 120 % of control | 128 % of control | 103 % of control
GpH7-A5/GpH7-B3 variant Q295_03V/GpL16-k0 (antibody, human IgG1, kappa) heavy 1: not shown heavy 2: not shown light: DIVMTQSPLSLPVTPGEPASISCQASESLVHSNRNTYLHWYLQKPGQSPQLLIYKVSNRFSGVPDRFSGSGSGTDFTLKISRVEAEDVGVYYCSQNTHVPPTFGQGTKVEIERTVAAPSVFIFPPSDEQLKSGTASVVCLLNNFYPREAKVQWKVDNALQSGNSQESVTEQDSKDSTYSLSSTLTLSKADYEKHKVYACEVTHQGLSSPVTKSFNRGEC | 90.3 % of control | 84.9 % of control | 86.2 % of control | 106 % of control | 102 % of control
GpH7-A5/GpH7-B3 variant Q295_10E/GpL16-k0 (antibody, human IgG1, kappa) heavy 1: not shown heavy 2: not shown light: DIVMTQSPLSLPVTPGEPASISCQASESLVHSNRNTYLHWYLQKPGQSPQLLIYKVSNRFSGVPDRFSGSGSGTDFTLKISRVEAEDVGVYYCSQNTHVPPTFGQGTKVEIERTVAAPSVFIFPPSDEQLKSGTASVVCLLNNFYPREAKVQWKVDNALQSGNSQESVTEQDSKDSTYSLSSTLTLSKADYEKHKVYACEVTHQGLSSPVTKSFNRGEC | 101 % of control | 106 % of control | 105 % of control | 112 % of control | 101 % of control
GpH7-A5/GpH7-B3 variant Q295_13S/GpL16-k0 (antibody, human IgG1, kappa) heavy 1: not shown heavy 2: not shown light: DIVMTQSPLSLPVTPGEPASISCQASESLVHSNRNTYLHWYLQKPGQSPQLLIYKVSNRFSGVPDRFSGSGSGTDFTLKISRVEAEDVGVYYCSQNTHVPPTFGQGTKVEIERTVAAPSVFIFPPSDEQLKSGTASVVCLLNNFYPREAKVQWKVDNALQSGNSQESVTEQDSKDSTYSLSSTLTLSKADYEKHKVYACEVTHQGLSSPVTKSFNRGEC | 73 % of control | 63.8 % of control | 90.4 % of control | 79.5 % of control | 100 % of control
